Substitutions are numbered along the chain they refer to.
B1: orphan clone 4 (random region) (ssRNA)
RNA: GGGAGACAAGACUAGACGCUCAACUACGUUCCUUAUCCUCCCUUCAGGAACCUGUACACCACAUUGCUUCGACAUGAGACUCACAACAGUUCCCUUUAGUGAGGGUUAAUU
modifications: 2'-F pyrimidines
B2: orphan clone 6 (random region) (ssRNA)
RNA: GGGAGACAAGACUAGACGCUCAAGCUGACCACCGCCAACGCAACCUCCAAUGACUUGGAUCACCUAGACGAUUUCGACAUGAGACUCACAACAGUUCCCUUUAGUGAGGGUUAAUU
modifications: 2'-F pyrimidines
B3: orphan clone 2 (random region) (ssRNA)
RNA: GGGAGACAAGACUAGACGCUCAACUCCUCUAGCACCAUAUCCAAGCUACAACUUCACAACGACUCGGCCUUCGACAUGAGACUCACAACAGUUCCCUUUAGUGAGGGUUAAUU
modifications: 2'-F pyrimidines
B4: Group I clone 1 (random region) (ssRNA)
RNA: GGGAGACAAGACUAGACGCUCAACUUUCCUAGCGCACAUGCGCACCUCUAUGCGUAAUACGAACGUUGACGUUCGACAUGAGACUCACAACAGUUCCCUUUAGUGAGGGUUAAUU
modifications: 2'-F pyrimidines
B5: Group I clone 4 (random region) (ssRNA)
RNA: B4 RNA with U26C, G32A, A69G
modifications: 2'-F pyrimidines
B6: Group I clone 27 (random region) (ssRNA)
RNA: B4 RNA with G32A, G65A, U66G, C70G, G71A
modifications: 2'-F pyrimidines
B7: Group I clone 11 (random region) (ssRNA)
RNA: B4 RNA with C28G, A57G, A69G
modifications: 2'-F pyrimidines
B8: Group I clone 26 (random region) (ssRNA)
RNA: B4 RNA with G32A, C37U, C41U
modifications: 2'-F pyrimidines
B9: Group I clone 19 (random region) (ssRNA)
RNA: B4 RNA with U51C
modifications: 2'-F pyrimidines
B10: Group I clone 9 (random region) (ssRNA)
RNA: B4 RNA with U39C, A69G
modifications: 2'-F pyrimidines
B11: Group I clone 15 (random region) (ssRNA)
RNA: B4 RNA with C37U, C48A, A69G
modifications: 2'-F pyrimidines
B12: Group I clone 2 (random region) (ssRNA)
RNA: B4 RNA with G32A, A69G
modifications: 2'-F pyrimidines
B13: Group I clone 3 (random region) (ssRNA)
RNA: B4 RNA with U25G, G32A, A69G
modifications: 2'-F pyrimidines
B14: Group I clone 14 (random region) (ssRNA)
RNA: B4 RNA with C37U, A69G
modifications: 2'-F pyrimidines
B15: Group I clone 24 (random region) (ssRNA)
RNA: B4 RNA with C33U, C37U, C41U, A69G
modifications: 2'-F pyrimidines
B16: Group I clone 10 (random region) (ssRNA)
RNA: B4 RNA with U27C, C43U, A69G
modifications: 2'-F pyrimidines
B17: Group I clone 20 (random region) (ssRNA)
RNA: B4 RNA with C46U, A69G
modifications: 2'-F pyrimidines
B18: Group I clone 5 (random region) (ssRNA)
RNA: B4 RNA with G32A, U39C, A69G
modifications: 2'-F pyrimidines
B19: Group I clone 6 (random region) (ssRNA)
RNA: B4 RNA with U26G, G32A, U39C, A69G
modifications: 2'-F pyrimidines
B20: Group I clone 16 (random region) (ssRNA)
RNA: B4 RNA with C37U, U67C, A69G
modifications: 2'-F pyrimidines
B21: Group I clone 12 (random region) (ssRNA)
RNA: B4 RNA with U67C, A69G
modifications: 2'-F pyrimidines
B22: Group I clone 13 (random region) (ssRNA)
RNA: B4 RNA with U26C, C33U, A69G
modifications: 2'-F pyrimidines
B23: Group I clone 22 (random region) (ssRNA)
RNA: B4 RNA with G32A, C33U
modifications: 2'-F pyrimidines
B24: Group I clone 7 (random region) (ssRNA)
RNA: B4 RNA with A69G
modifications: 2'-F pyrimidines
B25: Group I clone 23 (random region) (ssRNA)
RNA: B4 RNA with G32A, C37U
modifications: 2'-F pyrimidines
B26: Group I clone 18 (random region) (ssRNA)
RNA: B4 RNA with U67A
modifications: 2'-F pyrimidines
B27: Group I clone 17 (random region) (ssRNA)
RNA: B4 RNA with C28G, G42U
modifications: 2'-F pyrimidines
B28: orphan clone 3 (random region) (ssRNA)
RNA: GGGAGACAAGACUAGACGCUCAACUACGAACUCAUGACACAAGGAUGCAAUCUCAUCCCGCCAGCCCUUCGACAUGAGACUCACAACAGUUCCCUUUAGUGAGGGUUAAUU
modifications: 2'-F pyrimidines
B29: orphan clone 5 (random region) (ssRNA)
RNA: GGGAGACAAGACUAGACGCUCAAUAUCAACAUUAGGGCUCCUUGGGGACCAGCGUCUCCUUGCAGCCCCGAUUCGACAUGAGACUCACAACAGUUCCCUUUAGUGAGGGUUAAUU
modifications: 2'-F pyrimidines
B30: Group I clone 8 (random region) (ssRNA)
RNA: GGGAGACAAGACUAGACGCUCAACUUUCGCUAGCGCACAUGCGCACCUCUAUGCGCAUAUACGAACGUUGGCGUUCGACAUGAGACUCACAACAGUUCCCUUUAGUGAGGGUUAAUU
modifications: 2'-F pyrimidines

Biological target: prion protein PrP alpha-form, full-length mature, oxidized (Bos taurus, UniProt P10279 P10279:25-241)
Sequence (P10279 25-241, one chain of several): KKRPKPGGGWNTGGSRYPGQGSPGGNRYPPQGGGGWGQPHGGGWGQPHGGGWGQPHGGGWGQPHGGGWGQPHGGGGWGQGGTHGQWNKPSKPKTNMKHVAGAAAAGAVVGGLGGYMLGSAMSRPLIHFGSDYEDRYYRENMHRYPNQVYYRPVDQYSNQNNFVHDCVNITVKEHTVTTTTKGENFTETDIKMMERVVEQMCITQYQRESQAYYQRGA
Assay: EMSA
Details: tags: 6-octarepeat allele, Met-initiated, E. coli, untagged (Ni-NTA, SP-Sepharose, Superdex 75)

| Binder | binding result |
| --- | --- |
| B1 | binds |
| B2 | binds |
| B3 | binds |
| B4 | binds |
| B5 | binds |
| B6 | binds |
| B7 | binds |
| B8 | binds |
| B9 | binds |
| B10 | binds |
| B11 | binds |
| B12 | binds |
| B13 | binds |
| B14 | binds |
| B15 | binds |
| B16 | binds |
| B17 | binds |
| B18 | binds |
| B19 | binds |
| B20 | binds |
| B21 | binds |
| B22 | binds |
| B23 | binds |
| B24 | binds |
| B25 | binds |
| B26 | binds |
| B27 | binds |
| B28 | binds |
| B29 | binds |
| B30 | binds |

From patent US20030162225 (published 2003)
